B1: Protein PTHB1 (Homo sapiens), Q3SYG4 (parent)
chain: MSLFKARDWWSTILGDKEEFDQGCLCLANVDNSGNGQDKIIVGSFMGYLRIFSPHPAKTGDGAQAEDLLLEVDLRDPVLQVEVGKFVSGTEMLHLAVLHSRKLCVYSVSGTLGNVEHGNQCQMKLMYEHNLQRTACNMTYGSFGGVKGRDLICIQSMDGMLMVFEQESYAFGRFLPGFLLPGPLAYSSRTDSFLTVSSCQQVESYKYQVLAFATDADKRQETEQQKLGSGKRLVVDWTLNIGEQALDICIVSFNQSASSVFVLGERNFFCLKDNGQIRFMKKLDWSPSCFLPYCSVSEGTINTLIGNHNNMLHIYQDVTLKWATQLPHIPVAVRVGCLHDLKGVIVTLSDDGHLQCSYLGTDPSLFQAPNVQSRELNYDELDVEMKELQKIIKDVNKSQGVWPMTEREDDLNVSVVVSPNFDSVSQATDVEVGTDLVPSVTVKVTLQNRVILQKAKLSVYVQPPLELTCDQFTFEFMTPDLTRTVSFSVYLKRSYTPSELEGNAVVSYSRPTDRNPDGIPRVIQCKFRLPLKLICLPGQPSKTASHKITIDTNKSPVSLLSLFPGFASQSDDDQVNVMGFHFLGGARITVLASKTSQRYRIQSEQFEDLWLITNELILRLQEYFEKQGVKDFACSFSGSIPLQEYFELIDHHFELRINGEKLEELLSERAVQFRAIQRRLLARFKDKTPAPLQHLDTLLDGTYKQVIALADAVEENQGNLFQSFTRLKSATHLVILLIALWQKLSADQVAILEAAFLPLQEDTQELGWEETVDAAISHLLKTCLSKSSKEQALNLNSQLNIPKDTSQLKKHITLLCDRLSKGGRLCLSTDAAAPQTMVMPGGCTTIPESDLEERSVEQDSTELFTNHRHLTAETPRPEVSPLQGVSE
partner: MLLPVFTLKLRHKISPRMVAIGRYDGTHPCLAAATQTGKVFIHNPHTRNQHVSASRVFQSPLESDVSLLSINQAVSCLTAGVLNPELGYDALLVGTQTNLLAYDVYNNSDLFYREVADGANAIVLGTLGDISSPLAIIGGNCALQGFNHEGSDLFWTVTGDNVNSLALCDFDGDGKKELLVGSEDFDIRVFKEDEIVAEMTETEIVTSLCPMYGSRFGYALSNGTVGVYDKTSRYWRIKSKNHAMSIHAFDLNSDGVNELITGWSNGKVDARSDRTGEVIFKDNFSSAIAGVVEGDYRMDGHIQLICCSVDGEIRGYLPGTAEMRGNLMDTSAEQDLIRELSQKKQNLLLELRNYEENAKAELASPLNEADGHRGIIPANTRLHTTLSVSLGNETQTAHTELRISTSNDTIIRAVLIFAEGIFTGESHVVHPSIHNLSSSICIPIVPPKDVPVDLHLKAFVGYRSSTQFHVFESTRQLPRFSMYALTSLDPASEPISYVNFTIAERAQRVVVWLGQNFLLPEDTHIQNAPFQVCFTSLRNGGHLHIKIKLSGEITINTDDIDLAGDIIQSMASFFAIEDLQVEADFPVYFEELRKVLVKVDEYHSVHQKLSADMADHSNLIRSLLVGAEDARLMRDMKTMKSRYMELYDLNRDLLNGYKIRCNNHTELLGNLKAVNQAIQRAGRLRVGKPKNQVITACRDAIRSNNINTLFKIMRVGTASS

184 variants from IntAct's records for PubMed 29039417 can be followed below.

The variants in the test derive from B1. To be noted: with bbs2_human BBS2, Q9BXC9.
Turning to Y495K, the “effect of a mutation on the interaction” value is reported as “with no effect”.
For Y495E the value was “with no effect”; for Y495A, “with no effect”; for S488K, “with no effect”.
For S488A, the “effect of a mutation on the interaction” value was “with no effect”.
For S488E the value was “with no effect”; for Q524E, “with no effect”.
With Q524K, the “effect of a mutation on the interaction” value is on record as “with no effect”.
Regarding Q524A, the “effect of a mutation on the interaction” value was “with no effect”.
As to I534K, the “effect of a mutation on the interaction” value was “with no effect”.
Regarding I534E, the “effect of a mutation on the interaction” value is “with no effect”.
For I534A the value was “with no effect”; for P516K, “with no effect”.
As for P516E, the entry is “with no effect”.
As for P516A, the entry is “with no effect”; as for T482K, “with no effect”; as for T482A, “with no effect”.
On to T482E, for which the “effect of a mutation on the interaction” value is reported as “with no effect”.
As for S494A, the entry is “with no effect”; as for S494K, “with no effect”.
With S494E, the “effect of a mutation on the interaction” value was “with no effect”.
As for P520A, the entry is “with no effect”; as for P520K, “with no effect”.
As for P520E, the entry is “with no effect”.
As for S486N, the entry is “disrupting interaction strength”; as for S486R, “disrupting interaction strength”; as for S486E, “with no effect”.
S486K: the “effect of a mutation on the interaction” value is recorded as “with no effect”.
As for S486A, the entry is “with no effect”; as for V505E, “with no effect”.
As to V505K, the “effect of a mutation on the interaction” value is “with no effect”.
For V505A the value was “with no effect”; for R521T, “disrupting interaction strength”.
As for R521E, the entry is “with no effect”.
For R521K the value was “with no effect”; for R521A, “with no effect”; for L533A, “with no effect”.
For the variant L533K, the “effect of a mutation on the interaction” value is on record as “with no effect”.
On to L533E, for which the “effect of a mutation on the interaction” value is “with no effect”.
For T478K the value was “with no effect”.
For T478I the value was “disrupting interaction strength”; for F487K, “with no effect”; for F487A, “with no effect”.
As for F487E, the entry is “with no effect”; as for L536E, “with no effect”.
For the variant L536A, the “effect of a mutation on the interaction” value was “with no effect”.
For L536K the value was “with no effect”; for F527E, “with no effect”; for F527A, “with no effect”.
For F527K the value was “with no effect”; for N503K, “with no effect”.
As to N503E, the “effect of a mutation on the interaction” value is “with no effect”.
As for N503A, the entry is “with no effect”; as for N515A, “with no effect”; as for N515K, “with no effect”.
As for N515E, the entry is “with no effect”.
Take E501A: the “effect of a mutation on the interaction” value is listed as “with no effect”.
As for E501K, the entry is “with no effect”; as for Y508E, “with no effect”; as for Y508A, “with no effect”.
As for Y508K, the entry is “with no effect”.
As for G518E, the entry is “with no effect”; as for G518K, “with no effect”; as for G518A, “with no effect”.
Turning to T484K, the “effect of a mutation on the interaction” value is “with no effect”.
For T484E the value was “with no effect”.
As for T484A, the entry is “with no effect”; as for E499K, “with no effect”; as for E499A, “with no effect”.
As for T496E, the entry is “with no effect”; as for T496K, “with no effect”; as for T496A, “with no effect”.
With R510K, the “effect of a mutation on the interaction” value is “with no effect”.
With R510E, the “effect of a mutation on the interaction” value was “with no effect”.
As for R510A, the entry is “with no effect”; as for S498A, “with no effect”; as for S498L, “disrupting interaction strength”.
As for S498K, the entry is “with no effect”; as for S498E, “with no effect”.
K532A: the “effect of a mutation on the interaction” value is reported as “with no effect”.
As for K532E, the entry is “with no effect”; as for V506K, “with no effect”; as for V506E, “with no effect”.
As for V506A, the entry is “with no effect”; as for V489K, “with no effect”; as for V489A, “with no effect”.
For V489E the value was “with no effect”; for T512A, “with no effect”.
For the variant T512E, the “effect of a mutation on the interaction” value is given as “with no effect”.
As for T512K, the “effect of a mutation on the interaction” value is given as “with no effect”.
For G502A, the “effect of a mutation on the interaction” value was “with no effect”.
As for G502E, the “effect of a mutation on the interaction” value was “with no effect”.
As for G502K, the entry is “with no effect”.
As for K526E, the entry is “with no effect”; as for K526A, “with no effect”; as for L529K, “with no effect”.
For L529E, the “effect of a mutation on the interaction” value was “with no effect”.
For L529A the value was “with no effect”; for V485A, “with no effect”; for V485K, “with no effect”.
For V485E the value was “with no effect”.
For R483K the value was “with no effect”; for R483E, “with no effect”; for R483A, “with no effect”.
For S507A, the “effect of a mutation on the interaction” value is on record as “with no effect”.
For S507E the value was “with no effect”; for S507K, “with no effect”; for L491K, “with no effect”.
As for L491E, the entry is “with no effect”; as for L491A, “with no effect”.
For Y490A the value was “with no effect”; for Y490K, “with no effect”.
On to Y490E, for which the “effect of a mutation on the interaction” value is on record as “with no effect”.
For I523A the value was “with no effect”.
For I523K the value was “with no effect”; for I523E, “with no effect”; for V522A, “with no effect”.
On to V522E, for which the “effect of a mutation on the interaction” value is recorded as “with no effect”.
For V522K the value was “with no effect”.
As for R493K, the entry is “with no effect”.
For the variant R493A, the “effect of a mutation on the interaction” value is “with no effect”.
For R493E the value was “with no effect”; for P479L, “disrupting interaction strength”.
As for P479A, the entry is “with no effect”; as for P479K, “with no effect”.
As for P479E, the entry is “with no effect”; as for S509K, “with no effect”.
Regarding S509A, the “effect of a mutation on the interaction” value is given as “with no effect”.
For S509E the value was “with no effect”; for K492A, “with no effect”; for K492E, “with no effect”.
As for L531E, the entry is “with no effect”; as for L531K, “with no effect”; as for L531A, “with no effect”.
For R528A the value was “with no effect”; for R528K, “with no effect”; for R528E, “with no effect”.
Regarding R514K, the “effect of a mutation on the interaction” value was “with no effect”.
As for R514A, the entry is “with no effect”; as for R514E, “with no effect”.
Consider Q539A, for which the “effect of a mutation on the interaction” value is given as “with no effect”.
Consider Q539E, for which the “effect of a mutation on the interaction” value is on record as “with no effect”.
For I519A the value was “with no effect”; for I519K, “with no effect”; for I519E, “with no effect”.
Regarding D517E, the “effect of a mutation on the interaction” value is on record as “with no effect”.
As for D517K, the entry is “with no effect”.
As for D517A, the entry is “with no effect”; as for C535K, “with no effect”.
C535E: the “effect of a mutation on the interaction” value is given as “with no effect”.
In the case of C535A, the “effect of a mutation on the interaction” value is given as “with no effect”.
For L500A the value was “with no effect”; for L500E, “with no effect”; for L500K, “with no effect”.
As for A504E, the entry is “with no effect”; as for A504K, “with no effect”.
For G538K the value was “with no effect”; for G538A, “with no effect”.
For G538E, the “effect of a mutation on the interaction” value is recorded as “with no effect”.
As to P530K, the “effect of a mutation on the interaction” value is “with no effect”.
As for P530E, the entry is “with no effect”.
As for P530L, the entry is “disrupting interaction strength”; as for P530A, “with no effect”; as for D480E, “with no effect”.
For D480A the value was “with no effect”.
Take D480K: the “effect of a mutation on the interaction” value was “with no effect”.
P511K: the “effect of a mutation on the interaction” value is “with no effect”.
For P511E the value was “with no effect”.
For P511A the value was “with no effect”; for P537A, “with no effect”; for P537K, “with no effect”.
As for P537E, the entry is “with no effect”; as for P497E, “with no effect”; as for P497K, “with no effect”.
As to P497A, the “effect of a mutation on the interaction” value was “with no effect”.
Regarding L481A, the “effect of a mutation on the interaction” value is recorded as “with no effect”.
As for L481E, the entry is “with no effect”; as for L481K, “with no effect”.
As for C525K, the entry is “with no effect”; as for C525E, “with no effect”; as for C525A, “with no effect”.
For D513A the value was “with no effect”; for D513E, “with no effect”; for D513K, “with no effect”.
